This note sets out measurements from article PMC11218785, “Methyltransferase TaSAMT1 mediates wheat freezing tolerance by integrating brassinosteroid and salicylic acid signaling”.

For the series, the target named is T1, MBP-TaBZR1 (Triticum aestivum, UniProt A0A3B6AUH8 1-313).
T1 sequence: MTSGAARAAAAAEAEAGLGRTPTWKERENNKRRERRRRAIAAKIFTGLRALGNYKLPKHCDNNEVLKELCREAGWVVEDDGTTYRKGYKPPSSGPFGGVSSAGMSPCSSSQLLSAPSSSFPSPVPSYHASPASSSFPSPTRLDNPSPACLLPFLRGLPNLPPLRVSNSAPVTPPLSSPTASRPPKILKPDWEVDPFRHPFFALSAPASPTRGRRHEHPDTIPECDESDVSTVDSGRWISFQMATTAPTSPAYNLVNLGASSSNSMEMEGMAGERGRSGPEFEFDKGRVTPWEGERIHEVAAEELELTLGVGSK
Description: EMSA; 1 nM probe; 1x LightShift binding buffer, 50 ng poly(dI-dC), 2.5% glycerol, 0.05% NP-40, 50 mM KCl, 5 mM MgCl2, 2 mM EDTA pH 8.0, 1 nM biotin probe, 25 C 20 min, 6% PAGE. The settings on record: protein: recombinant; tags: N-terminal MBP (pCold-MBP); chain copies: 2; label: biotin (forward strand primer marked bio); blunt.

B1: TaSAMT1-B promoter E-box probe (dsDNA)
DNA 1: CACGCGCATACGTGCTCATATGGCAATGAG
DNA 2: CTCATTGCCATATGAGCACGTATGCGCGTG
For the molecule B1, the binding result is listed as “binds”.
